This is an account of results in patent publication CN108503707A (ZHEJIANG ACAD MEDICAL SCIENCES, dated 2018).

For the assay, the target named is T1, 弓形虫重组SAG1蛋白(表面膜抗原1) (Toxoplasma gondii, UniProt P13664 48-306, limits assumed).
T1 construct: The vector tag (pET28a, Ni-NTA purified) is not described; In the BLI programme the loading step is called biotinylated antigen, but the sensor is APS; also called SAG1-m; SAG1重组抗原
T1 sequence (looked up): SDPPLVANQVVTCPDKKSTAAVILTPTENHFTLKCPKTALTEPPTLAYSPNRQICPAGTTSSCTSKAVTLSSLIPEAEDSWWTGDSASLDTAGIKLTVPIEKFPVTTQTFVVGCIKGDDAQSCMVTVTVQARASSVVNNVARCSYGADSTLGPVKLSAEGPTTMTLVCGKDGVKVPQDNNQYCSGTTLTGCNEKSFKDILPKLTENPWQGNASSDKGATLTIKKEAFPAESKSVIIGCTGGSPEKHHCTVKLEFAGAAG
In words: BLI (ForteBio Octet Red), SAG1 on APS sensor, nanobody at 6.25-100 nM.

One may read the Kd as a measure of binding affinity in units of concentration.

B1: 1号克隆株抗SAG1纳米抗体 (VHH)
VHH: HVQLVESGGGSVQAGGSLKLSCTASGYTSNNNCMAWYRQAPGKEPEGVAGIDSEGTTRYADSVKGRFTISKDNAKNTLYLQMNSLKPEDTGMYYCGAGPDRPARCQYDVWGQGTQVTVSS
notes: Tags or fusion parts from the vectors are not described; also called SAG1-1; 一号克隆株抗SAG1纳米抗体
B1 came in with a Kd of 1.66 nM.
